Test results published in paper PMC9851154.

How the values were obtained:
purified protein [1] = substrate: Oc1ccc(/C=C/c2cc(O)cc(O)c2)cc1; test: purified protein; type: biochemical, Novosphingobium aromaticivorans; settings: apparent, 0.1 M Tris-HCl pH 9, room temperature
purified protein [2] = substrate: CC=Cc1ccc(O)c(OC)c1; test: purified protein; type: biochemical, Novosphingobium aromaticivorans; settings: apparent, 0.1 M Tris-HCl pH 9, room temperature

Protein	Km (purified protein [1])	kcat (purified protein [1])	kcat/Km (purified protein [1])	Km (purified protein [2])	kcat (purified protein [2])	kcat/Km (purified protein [2])
NOV1 (Novosphingobium aromaticivorans DSM 12444) (protein) MAQFPNTPSFTGFNTPSRIEADIADLAHEGTIPQGLNGAFYRVQPDPQFPPRLDDDIAFNGDGMITRFHIHDGQVDFRQRWAKTDKWKLENAAGKALFGAYRNPLTDDEAVKGEIRSTANTNAFVFGGKLWAMKEDSPALVMDPATMETFGFEKFGGKMTGQTFTAHPKVDPKTGNMVAIGYAASGLCTDDVTYMEVSPEGELVREVWFKVPYYCMMHDFGITEDYLVLHIVPSIGSWERLEQGKPHFGFDTTMPVHLGIIPRRDGVRQEDIRWFTRDNCFASHVLNAWQEGTKIHFVTCEAKNNMFPFFPDVHGAPFNGMEAMSHPTDWVVDMASNGEDFAGIVKLSDTAAEFPRIDDRFTGQKTRHGWFLEMDMKRPVELRGGSAGGLLMNCLFHKDFETGREQHWWCGPVSSLQEPCFVPRAKDAPEGDGWIVQVCNRLEEQRSDLLIFDALDIEKGPVATVNIPIRLRFGLHGNWANADEIGLAEKVLAA	60 ± 10 µM	0.38 ± 0.02 s⁻¹	6300 ± 200 M⁻¹ s⁻¹	600 ± 100 µM	7.3 ± 0.2 s⁻¹	12200 ± 2000 M⁻¹ s⁻¹
NOV1 (Novosphingobium aromaticivorans DSM 12444; S283F) (protein) MAQFPNTPSFTGFNTPSRIEADIADLAHEGTIPQGLNGAFYRVQPDPQFPPRLDDDIAFNGDGMITRFHIHDGQVDFRQRWAKTDKWKLENAAGKALFGAYRNPLTDDEAVKGEIRSTANTNAFVFGGKLWAMKEDSPALVMDPATMETFGFEKFGGKMTGQTFTAHPKVDPKTGNMVAIGYAASGLCTDDVTYMEVSPEGELVREVWFKVPYYCMMHDFGITEDYLVLHIVPSIGSWERLEQGKPHFGFDTTMPVHLGIIPRRDGVRQEDIRWFTRDNCFAFHVLNAWQEGTKIHFVTCEAKNNMFPFFPDVHGAPFNGMEAMSHPTDWVVDMASNGEDFAGIVKLSDTAAEFPRIDDRFTGQKTRHGWFLEMDMKRPVELRGGSAGGLLMNCLFHKDFETGREQHWWCGPVSSLQEPCFVPRAKDAPEGDGWIVQVCNRLEEQRSDLLIFDALDIEKGPVATVNIPIRLRFGLHGNWANADEIGLAEKVLAA	227 ± 2 µM	0.078 ± 0.004 s⁻¹	340 ± 20 M⁻¹ s⁻¹	800 ± 100 µM	14.5 ± 0.8 s⁻¹	18100 ± 4000 M⁻¹ s⁻¹
